Earlier results in patent US20250034272A1, “COMPOSITIONS AND METHODS FOR TREATING SEVERE ASTHMA” (Equillium, Inc., priority 2018, published 2025).

Test system: Th1/Th17 type T cells
Conditions: stated as known ability

B1: EQ001: humanized anti-CD6 monoclonal antibody, VH/VK SEQ ID NOS: 1 and 2; itolizumab produced in CHO cells (antibody, V domains shown)
VH: EVQLVESGGGLVKPGGSLKLSCAASGFKFSRYAMSWVRQAPGKRLEWVATISSGGSYIYYPDSVKGRFTISRDNVKNTLYLQMSSLRSEDTAMYYCARRDYDLDYFDSWGQGTLVTVSS
VL: DIQMTQSPSSLSASVGDRVTITCKASRDIRSYLTWYQQKPGKAPKTLIYYATSLADGVPSRFSGSGSGQDYSLTISSLESDDTATYYCLQHGESPFTLGSGTKLEIK
modifications: humanized T1h VH sequence; humanized T1h VL sequence
notes: itolizumab produced in CHO cells
inhibition of activation and migration of Th1/Th17 type T cells: inhibit activation and migration
